# Source: the RNAGym collection of RNA variant scans (doi:10.1073/pnas.2313332121)
# Fewer inactive variants are shown than the library holds.
# B1: TPR 5TU (parent)
# chain: GGAUCUUCUCGAUCUAACAAAAAAGACAAAUCUGCCACAAAGCUUGAGAGCAUCUUCGGAUGCAGAGGCGGCAGCCUUCGGUGGCGCGAUAGCGCCAACGUUCUCAACUAUGACACGCAAAACGCGUGCUCCGUUGAAUGGAGUUUAUCAUG
# Variants of: B1
# Assay: polymerase ribozyme fitness, log enrichment relative to wild type (log ratio); higher = more active; in vitro selection for triplet polymerase activity
# Outline: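 PCR was used to build mutant libraries for each subunit of a heterodimeric triplet polymerase ribozyme, which were then transcribed. A single in vitro selection round, in triplicate, used a frozen incubation at −7 °C and recovered extended constructs by gel excision, streptavidin beads and RT-PCR. Fitness is the logarithm of genotype enrichment relative to wild-type enrichment, averaged over replicates with inverse-variance weights. The logarithm is base 2, and after Illumina sequencing only genotypes with ≥10 input reads and ≥1 read per output were kept.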
row,Variant,polymerase ribozyme fitness (log ratio)
1,GGAUCUUCUCGAUCUAACAAAAAAGACAAAUCUGCCACAAAGCUUGAGAGCAUCUUCGGAUGCAGAGGCGGCAGCCUUCGGUGGCGCGAUUGCGCCAACGUUCUCAACGAUGACACGCAAAACGCGUGCUCCGUUGAAUGUAGUUUAUCAUG,≤ -4.2
2,GGAUCUUCUCGAUCUAACAAAAAAGACAAAUCUGCCACAAAGCUUGAGAGCAUCUUCGGAUGCAGAGGCGGCAGCCUUCGGUGGCGCGAUAACGCCAACGUUCUCAACUAUGACACGCAAAACGCGUGCUCCGUUGAAUGCAGUUUAUCAUG,-3.71
3,GGAUCUUCUCGAUCUAACAAAAAAGACAAAUCUGCCACAAAGCUUGAGAGCAUCUUCGGAUGCAGAGGCGGCAGCCUUCGGUGGCGCGAUAACGCCAACGUUCUCAACUAUGACACGCAAAACGCGUGCUCCGUUGAAUGAAGUUUAUCAUG,-2.48
4,GGAUCUUCUCGAUCUAACAAAAAAGACAAAUCUGCCACAAAGCUUGAGAGCAUCUUCGGAUGCAGAGGCGGCAGCCUUCGGUGGCGCGAUAACGCCAACCUUCUCAACUAUGACACGCAAAACGCGUGCUCCGUUGAAUGGAGUUUAUCAUG,-4.07
5,GGAUCUUCUCGAUCUAACAAAAAAGACAAAUCUGCCACAAAGCUUGAGAGCAUCUUCGGAUGCAGAGGCGGCAGCCUUCGGUGGCGCGAUAACGCCAACGUUCUCAACUAUGACAAGCAAAACGCGUGCUCCGUUGAAUGGACUUUAUCGUG,≤ -4.2
6,GGAUCUUCUCGAUCUAACAAAAAAGACAAAUCUGCCACAAAGCUUGAGAGCAUCUUCGGAUGCAGAGGCGGCAGCCUUCGGUGGCGCGAUAACGACAACGUUCUCAACUAUGACACGCAAAACGGGUGCUCCGUUGAAUGGAGUUUAUCAUG,-3.82
7,GGAUCUUCUCGAUCUAACAAAAAAGACAAAUCUGCCACAAAGCUUGAGAGCAUCUUCGGAUGCAGAGGCGGCAGCCUUCGGUGGCGCGAUAACGCCAACGUUCUCAACUAUGACACCCAAAACGCGUGCUCCGUUGAAUGGAGUUUAUCAUG,-2.82
8,GGAUCUUCUCGAUCUAACAAAAAAGACAAAUCUGCCACAAAGCUUGAGAGCAUCUUCGGAUGCAGAGGCGGCAGCCUUCGGUGGCGCGAUAACGCCAACGUUCUCAACUAUGACCCGCAAAACGCGUGCUCCGUUGAAUGGAGUUUAUCAUG,-3.48
9,GGAUCUUCUCGAUCUAACAAAAAAGACAAAUCUGCCACAAAGCUUGAGAGCAUCUUCGGAUGCAGAGGCGGCAGCCUUCGGUGGCGCGAUUGCGCCAACGUUCUCAACUAUGACACGCAAAACGCGUGCUCCGUUGAAUUGAGUUUAUCAUG,≤ -4.2
10,GGAUCUUCUCGAUCUAACAAAAAAGACAAAUCUGCCACAAAGCUUGAGAGCAUCUUCGGAUGCAGAGGCGGCAGCCUUCGGUGGCGCGAUUGCACCAACGUUCUCAACUAUGACACGCAAAACGCGUUCUCCGUUGAAUGGAGUUUAUCAUG,≤ -4.2
11,GGAUCUUCUCGAUCUAACAAAAAAGACAAAUCUGCCACAAAGCUUGAGAGCAUCUUCGGAUGCAGAGGCGGCAGCCUUCGGUGGCGCGAUUGCGCCAACGUUCUCAACUAUGACACGCAAAACGCGUGCUCCGUUGAAUGAAGUUUAUCAUG,-4.05
12,GGAUCUUCUCGAUCUAACAAAAAAGACAAAUCUGCCACAAAGCUUGAGAGCAUCUUCGGAUGCAGAGGCGGCAGCCUUCGGUGGCGCGAUAACGCCAACGUUCUAAACUAUGACACGCAAAACGCGUGCUCCGUUGAAUGGAGUUUAUCAUG,-3.36
13,GGAUCUUCUCGAUCUAACAAAAAAGACAAAUCUGCCACAAAGCUUGAGAGCAUCUUCGGAUGCAGAGGCGGCAGCCUUCGGUGGCGCGAUAACGCCAACGUUCUCAACUAUGACACGGAAAACGCGUGCUCCGUUGAAUGGAGUUUAUCAUG,-3.69
14,GGAUCUUCUCGAUCUAACAAAAAAGACAAAUCUGCCACAAAGCUUGAGAGCAUCUUCGGAUGCAGAGGCGGCAGCCUUCGGUGGCGCGAUUGCGCCAACGUUCUCAACUAUGAUACGCAAAACGCGUGCUCCGUUGAAUGGAGUUUAGCAUG,≤ -4.2
15,GGAUCUUCUCGAUCUAACAAAAAAGACAAAUCUGCCACAAAGCUUGAGAGCAUCUUCGGAUGCAGAGGCGGCAGCCUUCGGUGGCGCGAUUGCGCCAACGUUCUCAACUAUGACACGCAAAACGCGUGCUCCGUUGAAUGGAGUAUAUCAUG,-4
16,GGAUCUUCUCGAUCUAACAAAAAAGACAAAUCUGCCACAAAGCUUGAGAGCAUCUUCGGAUGCAGAGGCGGCAGCCUUCGGUGGCGCGAUAACGCCAAUGUUCUCAACUAUGACACUCAAAACGCGUGCUCCGUUGAAUGGAGUUUAUCAGG,≤ -4.2
17,GGAUCUUCUCGAUCUAACAAAAAAGACAAAUCUGCCACAAAGCUUGAGAGCAUCUUCGGAUGCAGAGGCGGCAGCCUUCGGUGGCGCGAUAACGCCAACGUUCUCCACUAGGACACGCAAAACGCGUGCUCCGUUAAAUGGAGUUUAUCAUG,≤ -4.2
18,GGAUCUUCUCGAUCUAACAAAAAAGACAAAUCUGCCACAAAGCUUGAGAGCAUCUUCGGAUGCAGAGGCGGCAGCCUUCGGUGGCGCGAUAACGCCAACGUUCGCAACUGUGACACGCAAAACGCGUGCUCCGUUGAAUGGAGUUUAUCAUG,-3.8
19,GGAUCUUCUCGAUCUAACAAAAAAGACAAAUCUGCCACAAAGCUUGAGAGCAUCUUCGGAUGCAGAGGCGGCAGCCUUCGGUGGCGCGAUUGCGCCAACGUUCUCAACUAUGACACGCAAAACGCGUGCUCCGUUGAAUGAAGGUUAUCAUG,≤ -4.2

row,Variant,polymerase ribozyme fitness (log ratio)
1,GGAUCUUCUCGAUCUAACAAAAAAGACAAAUCUGCCACAAAGCUUGAGAGCAUCUUCGGAUGCAGAGGCGGCAGCCUUCGGUGGCGCGAUAACGCCAACGUUCUCAACUAUGACACGCAAAACGCGUGCUCCGUUCAAUGGAGUUUAUCAUG,-3.83
2,GGAUCUUCUCGAUCUAACAAAAAAGACAAAUCUGCCACAAAGCUUGAGAGCAUCUUCGGAUGCAGAGGCGGCAGCCUUCGGUGGCGCGAUAACGCCAACGUUCUCAACUAUGACACGCAAAACGCGUGCUCCGUUGAAUGGAGUUUAUUAUG,-3.4
3,GGAUCUUCUCGAUCUAACAAAAAAGACAAAUCUGCCACAAAGCUUGAGAGCAUCUUCGGAUGCAGAGGCGGCAGCCUUCGGUGGCGCGAUAACGCCAACGUUCUCAACUAUGACACGCAAAACCCGUGCUCCGUUGAAUGGAGUUUAUCAUG,-3.03
4,GGAUCUUCUCGAUCUAACAAAAAAGACAAAUCUGCCACAAAGCUUGAGAGCAUCUUCGGAUGCAGAGGCGGCAGCCUUCGGUGGCGCGAUAACGCCAACGUUCACCAAUAUGACACGCAAAACGCGUGCUCCGUUGAAUGGAGUUUAUCAUG,≤ -4.2
5,GGAUCUUCUCGAUCUAACAAAAAAGACAAAUCUGCCACAAAGCUUGAGAGCAUCUUCGGAUGCAGAGGCGGCAGCCUUCGGUGGCGCGAUAACGCCAACGUUCUCAACUAUGACACGCAAAACGCGUGCUCCGUUGAAUGGAGUUUAUCAUG,-2.51
6,GGAUCUUCUCGAUCUAACAAAAAAGACAAAUCUGCCACAAAGCUUGAGAGCAUCUUCGGAUGCAGAGGCGGCAGCCUUCGGUGGCGCGAUAACGCCAACGUUCUCAAUUAUGACACGCAAAACGCGUGCUCCGUUGAAUGGAGUUUAUCAUG,≤ -4.2
7,GGAUCUUCUCGAUCUAACAAAAAAGACAAAUCUGCCACAAAGCUUGAGAGCAUCUUCGGAUGCAGAGGCGGCAGCCUUCGGUGGCGCGAUAACGCCAACGUUCUCAACUAUGACACGCAAAACGCGAGCUCCGUUGAAUGGAGUUUAUCUUG,-4.1
8,GGAUCUUCUCGAUCUAACAAAAAAGACAAAUCUGCCACAAAGCUUGAGAGCAUCUUCGGAUGCAGAGGCGGCAGCCUUCGGUGGCGCGAUUGCGCCAACGUUCUCAACUAUGACACGCAAAACGCGUACUCCGUUGAACGGAGUUUAUCUUG,≤ -4.2
9,GGAUCUUCUCGAUCUAACAAAAAAGACAAAUCUGCCACAAAGCUUGAGAGCAUCUUCGGAUGCAGAGGCGGCAGCCUUCGGUGGCGCGAUAACGCCAACGUUCUCAGCUAUGACACGCAAAACGCGUGCUCCGUUGAAUGGAGUUUAUCAUG,≤ -4.2
10,GGAUCUUCUCGAUCUAACAAAAAAGACAAAUCUGCCACAAAGCUUGAGAGCAUCUUCGGAUGCAGAGGCGGCAGCCUUCGGUGGCGCGAUUGCGCCAACGUUCUCAACUAUGACACGAAAAACGCGUGCUCCGUUGAAUGGCGGUUAUCAUG,≤ -4.2
11,GGAUCUUCUCGAUCUAACAAAAAAGACAAAUCUGCCACAAAGCUUGAGAGCAUCUUCGGAUGCAGAGGCGGCAGCCUUCGGUGGCGCGAUAACGCCAACGUUUUCAACUAUGACACGCAAAACGCGUGCUCCGUUGAAUGGAGUUUAUCAUG,-2.02
12,GGAUCUUCUCGAUCUAACAAAAAAGACAAAUCUGCCACAAAGCUUGAGAGCAUCUUCGGAUGCAGAGGCGGCAGCCUUCGGUGGCGCGAUAACGCCAACGUUCUCAACUAUGACACGCAGCACGCGUGCUCCGUUGAAUGGAGUUUACCAUG,-4.16
13,GGAUCUUCUCGAUCUAACAAAAAAGACAAAUCUGCCACAAAGCUUGAGAGCAUCUUCGGAUGCAGAGGCGGCAGCCUUCGGUGGCGCGAUUUCGCCAACGUUCUCAACUAUGACACGCAAAACGCGUGCUCAGUUGAAUGGAGUUUAUCAUG,≤ -4.2
14,GGAUCUUCUCGAUCUAACAAAAAAGACAAAUCUGCCACAAAGCUUGAGAGCAUCUUCGGAUGCAGAGGCGGCAGCCUUCGGUGGCGCGAUAACGCCAACGUUCUCAACUAUGACACGCAAAACGCGAGCUCCGUUGAAUGGAGUUUAUCAUG,-3.83
15,GGAUCUUCUCGAUCUAACAAAAAAGACAAAUCUGCCACAAAGCUUGAGAGCAUCUUCGGAUGCAGAGGCGGCAGCCUUCGGUGGCGCGAUAACGCCAACGUUCUCAACUAUGCCACGCAAAACGCGUGCUCCGUUGAAUGGAGUUUAUCAUG,-4.16
16,GGAUCUUCUCGAUCUAACAAAAAAGACAAAUCUGCCACAAAGCUUGAGAGCAUCUUCGGAUGCAGAGGCGGCAGCCUUCGGUGGCGCGAUAACGCCAACGGUCUCAACUAUGACACGCAAAACGCGUGCUCCGUUGAAUGGAGUUUAUUAUG,-3.56
17,GGAUCUUCUCGAUCUAACAAAAAAGACAAAUCUGCCACAAAGCUUGAGAGCAUCUUCGGAUGCAGAGGCGGCAGCCUUCGGUGGCGCGAUAACGCCAACGUUCUAAACUAUGACACGCAAAACGCGUGCUCCGUUGAAUGGAGUUUUUCAUG,-4.16
18,GGAUCUUCUCGAUCUAACAAAAAAGACAAAUCUGCCACAAAGCUUGAGAGCAUCUUCGGAUGCAGAGGCGGCAGCCUUCGGUGGCGCGAUAACGCCAACGUUCUCAACUAUGACAGGCAAAAGGCGUGCUCCGUUGAAUGGAGUUUAUCAUG,-2.92
19,GGAUCUUCUCGAUCUAACAAAAAAGACAAAUCUGCCACAAAGCUUGAGAGCAUCUUCGGAUGCAGAGGCGGCAGCCUUCGGUGGCGCGAUUGCGCCAACGUUCUCAAUUAUGUCACGUAAAACGCGUGCUCCGUUGAAUGGAGUUUAUGAUG,≤ -4.2
